US20170051041A1

What was measured:
Test in all cases: SPR single-cycle kinetics; reference WT-FVIII-C2
[1] = target: FVIII-C2 mutein L2252A (human) (UniProt P00451)
[2] = target: FVIII-C2 mutein H2315A (human) (UniProt P00451)
[3] = target: FVIII-C2 mutein F2200A (human) (UniProt P00451)
[4] = target: FVIII-C2 mutein E2228A (human) (UniProt P00451)
[5] = target: FVIII-C2 mutein Q2316A (human) (UniProt P00451)
[6] = target: FVIII-C2 mutein S2254A (human) (UniProt P00451)
[7] = target: FVIII-C2 mutein R2220A (human) (UniProt P00451)

Chain of Fab fragment of human anti-FVIII mAb BO2C11 (VH): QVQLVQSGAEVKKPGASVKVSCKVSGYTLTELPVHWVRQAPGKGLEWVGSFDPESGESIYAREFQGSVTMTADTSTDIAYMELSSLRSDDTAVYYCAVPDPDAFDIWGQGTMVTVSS
Chain of Fab fragment of human anti-FVIII mAb BO2C11 (VL): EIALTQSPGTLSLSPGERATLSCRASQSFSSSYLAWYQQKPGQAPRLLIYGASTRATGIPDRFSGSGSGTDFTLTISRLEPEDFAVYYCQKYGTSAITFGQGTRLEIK
Chain of UniProt P00451 (P00451 2189-2351 F2219A): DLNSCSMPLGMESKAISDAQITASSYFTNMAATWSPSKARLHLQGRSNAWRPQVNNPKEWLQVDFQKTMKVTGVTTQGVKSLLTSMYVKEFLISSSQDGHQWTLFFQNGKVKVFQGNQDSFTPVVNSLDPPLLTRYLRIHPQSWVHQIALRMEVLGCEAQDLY

Row | Substance | kd(mutein)/kd(WT) [3] [fold] | kd(mutein)/kd(WT) [7] [fold] | also measured
1 | Murine anti-FVIII C2 domain mAb 1B5 (GMA-8008) (antibody) | > 2 |  | kd(mutein)/kd(WT) [1]: > 2 fold; kd(mutein)/kd(WT) [2]: > 2 fold; kd(mutein)/kd(WT) [4]: > 2 fold; kd(mutein)/kd(WT) [5]: > 2 fold; kd(mutein)/kd(WT) [6]: > 2 fold
2 | Murine anti-FVIII C2 domain mAb 3D12 (antibody) | > 2 |  | 
3 | Murine anti-FVIII C2 domain mAb ESH8 (antibody) |  | 4.5 | 
4 | Murine anti-FVIII C2 domain mAb 2-117 (GMA-8003) (antibody) |  | 3 | 

Second part, led by results:

Row | kd(mutein)/kd(WT) [3] [fold] | kd(mutein)/kd(WT) [7] [fold] | Substance | also measured
5 |  | 2.7 | Murine anti-FVIII C2 domain mAb ESH4 (antibody) | 
6 | > 2 |  | Murine anti-FVIII C2 domain mAb I109 (antibody) | 
7 | > 2 |  | Fab fragment of human anti-FVIII mAb BO2C11 | 
